In publication PMC314469, “Protein Interaction Networks by Proteome Peptide Scanning” (PLoS Biology, 2004):

T1: amphyphisin SH3 (AMPH_HUMAN), P49418
T1 chain: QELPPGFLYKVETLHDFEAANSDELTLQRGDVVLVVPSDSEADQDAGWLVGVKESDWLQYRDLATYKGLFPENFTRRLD

B1: Q9Y384 121-134 (peptide)
chain: FSESLKRPWEDDPP
B2: Q99995 108-121 (peptide)
chain: FPTVPTRPEKGYIW
B3: Q96QH2 75-89 (peptide)
chain: FTDLPKKPPPPEVT
B4: P17752 389-402 (peptide)
chain: FTKTIKRPFGVKYN
B5: Q9NXF8 292-305 (peptide)
chain: FRRLPTRPRKGGPE
B6: Q96IC8 98-112 (peptide)
chain: FLLLPPRPPPARPE
B7: Q9UHP3 379-392 (peptide)
chain: FNQALGRPEKIHNK
B8: Q14289 851-865 (peptide)
chain: FTGPPQKPPRLGAQ
B9: Q9UQC2 347-361 (peptide)
chain: AIAPPPRPPKPSQA
B10: Q9BZW5 208-221 (peptide)
chain: AKDLLRRPFDLMLV
B11: Q9NQ75 154-167 (peptide)
chain: AILTLPRPVRASLP
B12: O76081 86-99 (peptide)
chain: FSHLLRRPPPEAPR
B13: O75055 1510-1524 (peptide)
chain: FVLVPLRPPSPARS
B14: Q9C093 551-564 (peptide)
chain: FQEFLKRPDHKQDF
B15: O43364 164-177 (peptide)
chain: FNKYLSRPRRVEIA
B16: O43508 84-97 (peptide)
chain: FLNRLVRPRRSAPK
B17: Q9HAP2 6-19 (peptide)
chain: FMSSPRRPRSRGRQ
B18: O00538 575-588 (peptide)
chain: FSFSLPRPGRRGSR
B19: Q9NUW7 10-23 (peptide)
chain: FVYNFIRPVKGKVS
B20: O43365 212-225 (peptide)
chain: FNRYLSRPRRVEMA
B21: P33076 484-497 (peptide)
chain: FSHILKRPDRVLLI
B22: Q96E32 219-233 (peptide)
chain: FSSVPSKPPMSLEP
B23: P11171 83-96 (peptide)
chain: FSSFLKRPKSQVSE
B24: Q9UBW7 1125-1138 (peptide)
chain: FVNEIRRPNGENYA
B25: O43558 420-433 (peptide)
chain: FNFDIRRPSLEHRQ
B26: P52945 167-180 (peptide)
chain: FNKYISRPRRVELA
B27: O43559 400-413 (peptide)
chain: FNFDFRRPGPEPPR
B28: P50219 263-276 (peptide)
chain: FNKYLSRPKRFEVA
B29: Q9H7L2 189-203 (peptide)
chain: FNDSPYKPPVTRSN
B30: Q9HA08 198-211 (peptide)
chain: AKINLKRPPTAGSQ
B31: P28288 243-256 (peptide)
chain: FLTRLRRPIGKMTI
B32: P32745 324-337 (peptide)
chain: FRRVLLRPSRRVRS
B33: P78508 165-178 (peptide)
chain: FLAKIARPKKRAET
B34: Q14539 22-35 (peptide)
chain: FVLRPLRPSRRYST
B35: Q9Y4B7 288-301 (peptide)
chain: FRGSFRRPDNLSLA
B36: Q9NUK8 110-123 (peptide)
chain: FLSIPRRPNWNQNT
B37: Q12908 58-71 (peptide)
chain: FLGHIKRPWGISVG
B38: O14802 125-138 (peptide)
chain: FLDYLKRPGLTYLQ
B39: Q9NW72 376-389 (peptide)
chain: FVTELRRPVAVRAK
B40: P08588 264-278 (peptide)
chain: FLGGPARPPSPSPS
B41: Q07954 3693-3706 (peptide)
chain: FVSPPNRPFRSKND
B42: Q9NQ90 781-794 (peptide)
chain: FVTELRRPDAVRTK

target: endophilin SH3 (SH3G2_HUMAN), Q99962; experiment: SPOT array

Row | Binder | normalised SPOT signal, Boehringer light units (BLU); mean over the file's lines of this peptide
1 | B1 | 35.3
2 | B2 | 425
3 | B3 | 59.2
4 | B4 | 61.9
5 | B5 | 1540
6 | B6 | 2020
7 | B7 | 100
8 | B8 | 76.1
9 | B9 | 5760
10 | B10 | 71.1
11 | B11 | 1390
12 | B12 | 5220
13 | B13 | 17300
14 | B14 | 32.9
15 | B15 | 156
16 | B16 | 2010
17 | B17 | 1160
18 | B18 | 2080
19 | B19 | 122
20 | B20 | 204
21 | B21 | 292

Row | Binder | normalised SPOT signal, Boehringer light units (BLU); mean over the file's lines of this peptide
22 | B22 | 35.9
23 | B23 | 51.3
24 | B24 | 12.8
25 | B25 | 3350
26 | B26 | 385
27 | B27 | 100
28 | B28 | 111
29 | B29 | 93
30 | B30 | 59
31 | B31 | 382
32 | B32 | 889
33 | B33 | 190
34 | B34 | 18800
35 | B35 | 109
36 | B36 | 1230
37 | B37 | 116
38 | B38 | 7.9
39 | B39 | 117
40 | B40 | 8610
41 | B41 | 224
42 | B42 | 43.1

Target: T1, amphyphisin SH3 (AMPH_HUMAN), P49418
Experiment: SPOT array

Row | Binder | normalised SPOT signal, Boehringer light units (BLU); mean over the file's lines of this peptide
43 | B1 | 58.5
44 | B2 | 562
45 | B3 | 88
46 | B4 | 22.4
47 | B5 | 340
48 | B6 | 42.3
49 | B7 | 92
50 | B8 | 2710
51 | B9 | 3020
52 | B10 | 31.3
53 | B11 | 402
54 | B12 | 172
55 | B13 | 1620
56 | B14 | 32.9
57 | B15 | 255
58 | B16 | 724
59 | B17 | 1130
60 | B18 | 1090
61 | B19 | 190
62 | B20 | 336
63 | B21 | 879

Row | Binder | normalised SPOT signal, Boehringer light units (BLU); mean over the file's lines of this peptide
64 | B22 | 30.1
65 | B23 | 37.5
66 | B24 | 23.8
67 | B25 | 115
68 | B26 | 242
69 | B27 | 26.2
70 | B28 | 193
71 | B29 | 64.1
72 | B30 | 0
73 | B31 | 14.2
74 | B32 | 5790
75 | B33 | 168
76 | B34 | 10100
77 | B35 | 74.9
78 | B36 | 164
79 | B37 | 34.2
80 | B38 | 14.8
81 | B39 | 39.9
82 | B40 | 80.6
83 | B41 | 3720
84 | B42 | 38.2
